Biological target: RAGE^23-341-His-FLAG (extracellular part of RAGE) (human (cDNA from HEK293T cells)) (UniProt Q15109)
Assay: pull-down

Chain of RAGE^23-341-His-FLAG (extracellular part of RAGE) (human (cDNA from HEK293T cells)) (Q15109 23-341): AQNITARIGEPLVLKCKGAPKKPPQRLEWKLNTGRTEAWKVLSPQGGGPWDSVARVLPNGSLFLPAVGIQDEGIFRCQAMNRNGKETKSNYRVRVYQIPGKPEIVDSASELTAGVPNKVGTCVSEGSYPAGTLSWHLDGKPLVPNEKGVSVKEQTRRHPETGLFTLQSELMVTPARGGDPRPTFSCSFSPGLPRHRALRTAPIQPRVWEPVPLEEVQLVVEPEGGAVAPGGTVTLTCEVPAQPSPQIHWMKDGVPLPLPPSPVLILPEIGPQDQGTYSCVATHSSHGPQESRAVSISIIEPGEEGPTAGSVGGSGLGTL

- fold of histone complex precipitated, against RAGE^124-341: 2.4 fold
Substance: core histone complex purified from bovines

Source: doi:10.1101/2024.09.03.610921
